Where a chain is given by its changes, count along the chain named.

Here are results for 17 molecules from US20240218057A1 (ROCKEFELLER UNIVERSITY, published 2024).

This experiment deals with T1, SARS-COV-2 RBD (SARS-COV-2, UniProt P0DTC2 319-539).
T1 construct: also called WT RBD
The experiment is described as follows: ELISA, RBD coated. (In an ELISA, binding on a coated surface is turned into a signal by an enzyme label.)

B1: C990 (antibody, V domains shown)
VH: EVQLVESGGGLVRPGGSLRLSCAASGFTVGSNFMSWVRQAPGKGLEWVSLIYSGGGTHYAESVKGRFTISRDKSKNTLYLQMNSLRAEDTAVYYCANQGYYYYMDVWGKGTTVTVS
VL: QSALTQPASVSGSPGQSITISCTGTSSDVGAYNYVSWHQHHPGKAPKLIIYDVSNRPSGVSNRFSGSKSGNTASLTISGLQAEDEADYYCTSYTNTTTPWVFGGGTKLTVL
notes: IgG; V domains only
For B1, the EC50 (as a rule, the concentration giving half of the maximal effect) is 1.92 ng/mL.

B2: C986 (antibody, V domains shown)
VH: EVQLVQSGAEVKKPGETLKISCKGSGDSFSNYWIGWVRQSPGKGLEWMAIVYPGDSDARYSPSFQGQVTISADKSVTTAYLKWSSLKASDTAIYYCVRGLPVDWYFDLWGRGTLVTVSS
VL: QSVLTQPPSVSGAPEQRVTISCTGSSSNIGAGHDVHWYQQLPGTAPKLLIYNNNNRPSGVPDRFSGSKSGASASLAISGLQAEDEAEYYCQSYDKSLSVLYVLGTGTKVTV
notes: IgG; V domains only
As for B2, the EC50 came out at 3.36 ng/mL.

B3: C953 (antibody, V domains shown)
VH: QVQLVQSGAEVKKPGSSVKVSCKASGGTFSSYAISWVRQAPGQGLEWMGRIIPILGIANYAQKFQGRVTITADKSTSTAYMELSSLRSEDTAVYYCARDSEYSSSWYSRGYYGMDVWGQGTTVTVSS
VL: not shown
notes: IgG; V domains only
In turn, B3 gave an EC50 of 4.09 ng/mL.

B4: C952 (antibody, V domains shown)
VH: EVQLVQSGAEVKKPGESLTISCKDSGNSFTIYWIGWVRQMPGKGLEWMGMIYPGDSGTRYSPSFEGQVTISADESINTAYLQWRSLKASDTAMYYCVRGIAVDWYFDLWGRGTLVTVSS
VL: QSVLTQPPSVSGAPGQRVTISCTGSSSNIGAGFDVHWYQQLPGTAPKLLIYGNNNRPSGVPDRFSGSKSATSASLAITGLQAEDEADYYCQSSDSSLSGLYVFGTGTNVIV
notes: IgG; V domains only
B4 registered an EC50 of 2.4 ng/mL.

B5: C967 (antibody, V domains shown)
VH: QVQLVESGGGVVQPGRSLRLSCAASGFTFRIYAMHWVRQAPGKGLEWVAIIWNDGSKQYYADSMKGRFTISRDNSKNTLYLQMNSLRDEDTALYYCAREGVALAGNGVDGFDIWGQGTMVTVSS
VL: DIQMTQSPSSLSASVGDRVTITCRASQTISTFLNWYRQIPGKAPKLLIYAASSLQSGVPSRFSGSGSGTDFTLTISSLQPEDFATYYCQQTYSTPYTFGRGTKLEIK
notes: IgG; V domains only
The molecule B5 displayed an EC50 of 3.58 ng/mL.

B6: C968 (antibody, V domains shown)
VH: QVQLVESGGGVVQPGRSLRLSCAASGFTFRIYAMHWVRQAPGKGLEWVAIIWNDGNKKDYVDSVKGRFTISRDNSRNTVYLQMNSLRVDEDTAVYYCAREGVAVGGNGVDGFDMWGQGTMVTVSS
VL: DIQMTQSPSSLSSSVGDRVTITCRASQSIGIYLNWYQQKPGKVPNLLIYAASTLQTGAPSRFSGSGSGTDFILSISSLQPEDFATYYCQQTYSVPYTFGQGTKLEIK
notes: IgG; V domains only
B6: a half-maximal effect (EC50) was put at 3.19 ng/mL. This EC50 and that of the molecule before are within 1.5-fold of each other.

B7: C956 (antibody, V domains shown)
VH: EVQLVESGGGLVQPGRSLRLSCTGSEFTFGDFSMSWFRQAPGKGLEWVGFIRRKADGGTTEYAASVRGRFTISRDDSKSIAYLVMNSLKSEDTAVYYCTRAWIPTPHDYWGQGVLVTVSS
VL: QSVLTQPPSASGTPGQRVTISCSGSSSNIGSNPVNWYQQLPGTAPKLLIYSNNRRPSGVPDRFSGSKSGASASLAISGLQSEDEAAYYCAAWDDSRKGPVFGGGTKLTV
notes: IgG; V domains only
Consider B7, for which the EC50 was 1.58 ng/mL.

B8: C957 (antibody, V domains shown)
VH: B7 VH with G24A, E26G, G30A, S35T, K54E, S79G, V84L, V95M, T99S, V114T
VL: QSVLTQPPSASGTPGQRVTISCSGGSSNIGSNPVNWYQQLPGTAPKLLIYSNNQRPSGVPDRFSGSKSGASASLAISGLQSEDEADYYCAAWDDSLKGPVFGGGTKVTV
notes: IgG; V domains only
Molecule B8 registered an EC50 of 1.93 ng/mL.

B9: C962 (antibody, V domains shown)
VH: EVQLVESGGGLVQPGGSLRLSCTASRLTVSSNYMNWVRQAPGKGLEWVSVIYAGGSTFYADSVKDRFTISRDNSMNTLYLQMNSLRVEDTAVYYCARLGGYRYGMDVWGQGTTVTV
VL: DIQMTQSPSSLSASVGDRVTITCQASQDISNYLNWYQQSPGKAPKLLIYDASKLETGVPSRFSGSGSGTDFTFTISSLQPEDIATYYCLQYDNLPYSFGQGTKLEI
notes: IgG; V domains only
Consider B9, for which the EC50 was found to be 1.74 ng/mL. This EC50 and that of the molecule before are within 1.5-fold of each other.

B10: C960 (antibody, V domains shown)
VH: QVQLVESGGGVVQPGRSLTLSCTASGFTFNRFAMFWVRQAPGKGLEWVAVISFDGSYEHYAESVKGRFAIFRDNPKNTLYLQMNSLRAEDTAVYYCAKSPINYCANGVCYPDSWGQGTLVTVSS
VL: NFMLTQPHSVSESPGKTVTISCTGSSGSIANNYVQWYQQRPGSAPTTVIFEDTQRPSGVPDRFSGSIDSSSNSASLNISGLKPEDEADYYCQSFDVNSRWVFGGGTKLTVL
notes: IgG; V domains only
On to B10, for which the EC50 turned out to be 1.62 ng/mL.

B11: C987 (antibody, V domains shown)
VH: QVQLQESGPGLVKPSETLSLTCNVSGDIINKYYWSWIRQSPGKGLEWIGYIYYSGTTYYNPSLKSRVTMSVGTSKQQFSLRLTSVTAADTAVYYCARMLSTEWSFNWFDPWGPGTLVTVSS
VL: SYELTQPPSVSVSPGQAASITCSGDKLGDKFACWYQQKPGQSPVLVIYQNDKRPTGIPERFSGSNSGNTATLTISGTQAMDEADYFCQAWDSTSASVFGTGTKVTVL
notes: IgG; V domains only
For the molecule B11, the response was half-maximal at 3.11 ng/mL (EC50). Against the preceding molecule, the EC50 is about 1.9-fold higher.

B12: C954 (antibody, V domains shown)
VH: QVQLVQSGAEVKKPGSSVKVSCKASGDTFTNYAFSWMRQAPGQGLEWMGRIIPILGIVKYSQKFQDRVRISADKSTSTAYMDLSSLRSEDTAMYYCARDSEFSTSWFSRGYHGMDVWGQGTTVTVSS
VL: DIVMTQSPLSLPVTPGEPASISCRSSQSLLHGDGYNYLDWYLQKPGQSPHLLIYLGSNRTSGVSDRFSGSGSGTDFTLKISRVEAEDVGVYYCMQALQTPPTFGGGTKVEIK
notes: IgG; V domains only
Molecule B12 yielded an EC50 of 1.48 ng/mL.

B13: C959 (antibody, V domains shown)
VH: QVQLQESGPGLVKPSETLSLNCNVSGGSISNYYWSWIRQPPGKGLEWIGFISYSGSTDYNPSLKSRVIISIDTSKKHFSLNLSSVTAADTAVYFCARHYDILTALSWFDPWGQGTLVTVSS
VL: QSVLTQPPSVSAAPGQTVTISCSGSSSNIRNNFVSWYQQFPGTAPKLLIYDNNKRPSGIPDRFSGSKSGTSATLGITGLQTGDEADYYCGTWDSSPSACWVFGAGTKLTV
notes: IgG; V domains only
The molecule B13 displayed an EC50 of 4.58 ng/mL.

B14: C955 (antibody, V domains shown)
VH: QVQLQQWGAGLLKPSETLSLTCAVYGGTFSGYSWTWIRQPPGKGLDWIGEINHSGSTNYNPSLKSRVTISVDTSKNQFSLKLSSVTAADTAVYYCARAGFGFVITSRSGTDPLFDYWGQGTLVTVSS
VL: QSVLTQPPSVSGAPGQRVTISCTGSSSNIGAGYDVHWYQQLPGTAPKVLIYGNNNRPSGVPDRFSGSKSGTSASLAITGLQAEDEADYYCQSYDTSLSGSRVFGGGTKLTVL
notes: IgG; V domains only
B14 returned an EC50 of 2.44 ng/mL.

B15: C989 (antibody, V domains shown)
VH: QVQLVQSGPEVKKPGSSVKVSCKASGGNFNSYTITWVRQAPGHGLEWMGRIIPTLGVANYALNFQDRITITADKSTSTAYMDLSSLRSEDTAVYYCARETGYSGFLAVAYMDVWGNGTTVTVSS
VL: QSVLTQPPSVSGAPGQRVTISCTGSSSNVGAGYDVHWYQQLPGTAPKLLIYRNNNRPSGVPDRFSGSKSGSSASLDITGLQAEDEADYYCQSYDSSLSDSVFGGGTKLTV
notes: IgG; V domains only
For the molecule B15, the midpoint of the response, the EC50, lay at 4.12 ng/mL. Against the preceding molecule, the EC50 is about 1.7-fold higher.

B16: C975 (antibody, V domains shown)
VH: EVQLVESGGDLTQPGGSLRLSCAASGFTFSSYDMHWVRQATGKGLEWVSGIGTSGDTYYADSVKGRFTISRENAKNSLFLQMNNLRAGDTATYYCARTEYAWGSYRSYWYFDLWGRGTLVTVSS
VL: DIQMTQSPSSLSASVGDRVTITCRTSQTISTYLNWYQQKPGKAPKVLIYAASSLQSGVPSRFSGSGSGTDFTLTISSLQPEDFATYFCQQSYSAPPWTFGPGTKVEIK
notes: IgG; V domains only
In turn, B16 displayed an EC50 of 2.88 ng/mL.

B17: C969 (antibody, V domains shown)
VH: QVQLQESGPGLVKPSETLSLTCTVSGGSISSYYWSWIRQPPGKGLEWIGYIYYSGSTNYNPSLKSRVTISVDTSKNQFSLKLSSVTAADTAVYYCARLLSTEWLFNWFDPWGQGTLVTVSS
VL: not shown
notes: IgG; V domains only
B17: the EC50 is 3.49 ng/mL.
